In publication PMC11532958:

Legend:
[1] = cell surface biotinylation, Western blot quantitation; settings: glycan lost; control: wild type
[2] = domain-selective surface biotinylation of polarized cells; settings: glycan lost; control: wild type

For “voltage-gated sodium channel β2 subunit: N42,66,74Q”, the localisation_or_trafficking [1] was “decreases” and the “other: apical versus basolateral polarity of surface protein” value [2] was “no change”.
